Source: patent US20210238279A1 (Johns Hopkins, published 2021)
Where a chain is given by its changes, count along the chain named.

T1: mouse ZnT8-His (mouse, UniProt Q8BGG0 1-367, limits assumed)
T1 construct: Over-expressed in HEK293 cells, solubilized with DDM and immobilized on Ni-NTA plates, or SDS-denatured on immunoblots; not shown: C-terminal poly-histidine tag
T1 sequence (looked up): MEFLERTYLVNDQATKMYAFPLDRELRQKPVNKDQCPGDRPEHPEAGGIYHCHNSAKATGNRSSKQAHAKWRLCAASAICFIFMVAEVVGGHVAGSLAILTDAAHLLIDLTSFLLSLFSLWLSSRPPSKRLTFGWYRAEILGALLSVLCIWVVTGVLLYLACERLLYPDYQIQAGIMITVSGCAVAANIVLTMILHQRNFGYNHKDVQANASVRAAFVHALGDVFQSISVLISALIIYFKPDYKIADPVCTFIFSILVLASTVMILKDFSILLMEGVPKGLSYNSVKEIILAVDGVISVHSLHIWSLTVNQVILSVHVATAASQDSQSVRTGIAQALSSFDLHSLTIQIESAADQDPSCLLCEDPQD

T2: human ZnT8-His (human, UniProt Q8IWU4-2 1-320, limits assumed)
T2 construct: Over-expressed in HEK293 cells, solubilized with DDM and immobilized on Ni-NTA plates (native or unfolded with 2% SDS), or SDS-denatured on immunoblots; also called human ZnT8 with C-terminal poly-histidine tag; not shown: C-terminal poly-histidine tag
T2 sequence (looked up): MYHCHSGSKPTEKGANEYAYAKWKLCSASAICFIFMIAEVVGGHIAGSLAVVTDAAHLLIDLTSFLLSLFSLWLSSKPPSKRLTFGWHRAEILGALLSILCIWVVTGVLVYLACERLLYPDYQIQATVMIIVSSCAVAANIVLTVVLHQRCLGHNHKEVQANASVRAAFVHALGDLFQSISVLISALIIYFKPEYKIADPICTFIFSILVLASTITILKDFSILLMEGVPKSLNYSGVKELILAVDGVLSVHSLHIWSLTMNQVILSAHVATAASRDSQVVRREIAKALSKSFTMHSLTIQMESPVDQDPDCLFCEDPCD

B1: mAb20 (antibody, V domains shown)
VH: QIQLVQSGPELKKPGETVKISCKASGYIFTNYPMHWVKQAPGKGLKWMGWINTYSGVPTHADDFKGRFAFSLETSANSAFLQINNLKNEDTATYFCTRSRITPTGGYAMDYWGQGTSVTVSS
VL: DVVMTQTPLSLPVSLGDQASISCRSSQSLVHSNGNTYLHWYLQKPGQSPNLLISKVSNRFSGVPERFSGSGSGTDFTLKISRVEAEDLGVYFCSQNTHVPWTFGGGTKLEIKR
notes: Mouse hybridoma mAb purified on protein A/G; In some assays it was labelled with Alexa Fluor 488 or terbium cryptate; also called monoclonal antibody mAb20; anti-ZnT8 mAb20
B2: mAb39 (antibody, V domains shown)
VH: QVQLQQPGAELVKPGASVKLSCKASGYSFTTYWMHWVKQRPGQGLEWVGDINPRNGRTNYNEKSKSKATLTVDISSSTVYMQVSSLTSEDSAVYYCAIWSGAMDYWGPGTSVTVSS
VL: B1 VL with A19P, R24K, S32N, N50K, S54Y, E65D, N96T, W101P
notes: Mouse hybridoma mAb purified on protein A/G; In some assays it was labelled with Alexa Fluor 555 or d2; also called monoclonal antibody mAb39; anti-ZnT8 mAb39

Key:
mouse ZnT8-His [1] = molecular target: T1, mouse ZnT8-His; assay: ELISA titration on ZnT8-His immobilized on Ni-NTA plate; reference is human ZnT8-His; fold ratio of mouse to human apparent affinity; Ni-NTA plate titration
Description: (§1) FIG. 7A-7D. mAb binding specificities (FIG. 7A) mAb binding to ZnT8-His immobilized to Ni-NTA plate. Bound mAb20 (red) or mAb39 (magenta) was detected by an HRP-conjugated secondary antibody. Solid lines are least-squares fits of binding datapoints to a one-component binding process. Error bars are standard errors (n=8). (FIG. 7B) SDS-denatured mouse ZnT8-His (labeled as M) and human ZnT8-His (labeled as H) on immunoblots were detected by mAb20 or mAb39 as indicated. […] (FIG. 7C) Detection of endogenous human ZnT8 in EndoC-βH cells by mAb20 or […] immunoblotting. An equal amount of EndoC-βH lysate (5 μg total protein) was loaded to each lane. (FIG. 7D) Immunoblotting of HEK lysates with or with over-expression of a ZnT homolog as indicated. An approximately equal amount of total lysate protein (5 μg) was located to each lane, probed by either mAb20, mAb39, or anti-FALG antibody as indicated. FIG. 8. HTRF response to human ZnT8, mouse ZnT8 and human ZnT3.
(§2) Binding specificities. […] Of note, the epitope-masking effect of ZnT8 immobilization weakened the apparent binding affinities of both mAbs as compared to the affinities determined by flow-cytometry, and such a weakening effect was more pronounced for mAb39, probably due to a closer proximity of the mAb39 epitope to the C-terminal His-tag. Next, we compared the immunoreactivities of mAbs to denatured ZnT8.

mouse ZnT8-His [2] = molecular target: T1, mouse ZnT8-His; assay: ELISA titration on ZnT8-His immobilized on Ni-NTA plate; reference is human ZnT8-His
Description: as §1, §2

human ZnT8-His = molecular target: T2, human ZnT8-His; assay: ELISA, ZnT8-His on Ni-NTA plate, HRP-conjugated secondary antibody; binder taken from the axis label and paragraph 166; curve taken as human
Description: as §1, §2

mouse ZnT8-His [3] = molecular target: T1, mouse ZnT8-His; assay: ELISA, ZnT8-His on Ni-NTA plate, HRP-conjugated secondary antibody; binder taken from the axis label and paragraph 166; curve taken as mouse
Description: as §1, §2

Row | Binder | fold difference in apparent binding affinity, mouse against human ZnT8 (mouse ZnT8-His [1]) | fold difference in apparent binding affinity, mouse against human ZnT8 (mouse ZnT8-His [2]) | EC50 (read off the curve) (human ZnT8-His) | EC50 (read off the curve) (mouse ZnT8-His [3])
1 | B1 | 567 fold | – | – | –
2 | B2 | – | 2 fold | ~10 nM | ~30 nM
